Like-named read-outs stand apart in the source and are kept apart here.
Key:
[1] = molecular target: Aspf2 expressed on the surface of A. fumigatus conidia (Aspergillus fumigatus (endogenous in CEA17 ΔakuB^Ku80 conidia)) (UniProt P79017); test: flow cytometry on cells; wild-type, Δaspf2 and aspf2^C conidia (BSA-treated) incubated with increasing amounts of purified Factor H, FHL-1, FHR1 or plasminogen 1 h at RT; bound protein detected with antibodies; median fluorescence intensity
[2] = molecular target: Aspf2 expressed on the surface of A. fumigatus conidia (Aspergillus fumigatus (endogenous in CEA17 ΔakuB^Ku80 conidia)) (UniProt P79017); test: as above; remark: listed apart in the source
[3] = molecular target: Recombinant Aspf2 (A. fumigatus) lacking the N-terminal 19-amino acid signal peptide, His-tagged (Aspergillus fumigatus) (UniProt P79017); test: BLI; Aspf2 loaded on Ni(II)-NTA biosensor; analyte Factor H 190-3,000 nM (150 s association, 150 s dissociation) or plasminogen 687.5-5,500 nM (200 s each); buffer control subtracted, BLITZ software
Human Factor H = molecular target: T1, Human Factor H (human, UniProt P08603 19-1231); test: as above; conditions: both partners purified
T1 construct: human complement Factor H, 150-kDa plasma protein composed of 20 short conserved repeats (SCR); also called NHS derived Factor H; source: bought: CompTech (purified human Factor H); also in normal human serum (NHS-EDTA) and C3 depleted serum
T1 sequence (P08603 19-1231): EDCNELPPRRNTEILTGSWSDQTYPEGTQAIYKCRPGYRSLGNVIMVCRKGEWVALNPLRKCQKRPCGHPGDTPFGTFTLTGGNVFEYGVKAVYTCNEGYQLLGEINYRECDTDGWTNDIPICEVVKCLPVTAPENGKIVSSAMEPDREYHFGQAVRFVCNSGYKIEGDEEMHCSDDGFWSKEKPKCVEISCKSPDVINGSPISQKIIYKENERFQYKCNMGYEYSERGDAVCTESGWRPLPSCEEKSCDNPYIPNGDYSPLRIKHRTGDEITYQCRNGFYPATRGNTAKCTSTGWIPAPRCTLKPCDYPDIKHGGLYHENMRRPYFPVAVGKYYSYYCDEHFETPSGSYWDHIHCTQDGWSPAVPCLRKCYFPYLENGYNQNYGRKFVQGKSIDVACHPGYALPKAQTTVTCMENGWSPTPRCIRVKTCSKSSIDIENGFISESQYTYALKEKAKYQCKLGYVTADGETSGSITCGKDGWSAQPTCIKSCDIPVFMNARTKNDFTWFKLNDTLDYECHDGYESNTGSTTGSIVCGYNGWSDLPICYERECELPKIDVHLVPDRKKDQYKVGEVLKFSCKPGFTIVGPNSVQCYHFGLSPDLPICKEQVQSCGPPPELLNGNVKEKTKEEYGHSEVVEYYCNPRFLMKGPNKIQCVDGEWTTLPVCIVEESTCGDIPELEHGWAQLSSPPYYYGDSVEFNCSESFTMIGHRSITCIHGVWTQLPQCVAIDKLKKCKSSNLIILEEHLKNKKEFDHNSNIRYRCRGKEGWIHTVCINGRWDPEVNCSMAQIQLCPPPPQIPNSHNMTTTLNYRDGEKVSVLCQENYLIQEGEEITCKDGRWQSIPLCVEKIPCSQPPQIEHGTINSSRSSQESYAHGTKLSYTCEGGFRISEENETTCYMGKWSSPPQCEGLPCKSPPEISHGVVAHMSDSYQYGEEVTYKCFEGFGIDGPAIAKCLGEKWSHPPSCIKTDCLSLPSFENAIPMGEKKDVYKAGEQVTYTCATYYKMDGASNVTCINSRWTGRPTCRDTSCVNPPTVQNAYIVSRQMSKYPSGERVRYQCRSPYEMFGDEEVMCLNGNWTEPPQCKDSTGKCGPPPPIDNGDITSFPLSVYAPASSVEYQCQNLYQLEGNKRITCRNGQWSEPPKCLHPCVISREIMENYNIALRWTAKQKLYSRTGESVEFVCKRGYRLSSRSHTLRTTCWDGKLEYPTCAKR

Molecule	percent lower binding to Δaspf2 conidia than to wild-type conidia (plasminogen at 20 µg/ml) [1] [%]	percent lower binding to Δaspf2 conidia than to wild-type conidia (plasminogen at 20 µg/ml) [2] [%]	Kd [3] [nM]	Kd (Human Factor H) [nM]
Human plasminogen (natural protein)	24	31	846	–
Recombinant Aspf2 (A. fumigatus) lacking the N-terminal 19-amino acid signal peptide, His-tagged (natural protein, Aspergillus fumigatus, UniProt P79017 20-310, looked up, Aspf2 of Aspergillus fumigatus, a 310 amino acid-long protein; cloned from cDNA of strain CEA17 akuB^KU80 without the N-terminal 19-amino acid signal peptide; also called ΔN19AspF2; source: Pichia pastoris X33 (pPICZαB), culture supernatant, purified (HisTrap column)) TLPTSPVPIAARATPHEPVFFSWDAGAVTSFPIHSSCNATQRRQIEAGLNEAVELARHAKAHILRWGNESEIYRKYFGNRPTMEAVGAYDVIVNGDKANVLFRCDNPDGNCALEGWGGHWRGANATSETVICDRSYTTRRWLVSMCSQGYTVAGSETNTFWASDLMHRLYHVPAVGQGWVDHFADGYDEVIALAKSNGTESTHDSEALQYFALEAYAFDIAAPGVGCAGESHGPDQGHDTGSASAPASTSTSSSSSGSGSGATTTPTDSPSATIDVPSNCHTHEGGQLHCT	–	–	–	76

From article PMC6106110, “Aspf2 From Aspergillus fumigatus Recruits Human Immune Regulators for Immune Evasion and Cell Damage” (Frontiers in Immunology, 2018)
